Tests used:
[1] = target: epidermal growth factor receptor (EGFR) (human) (UniProt P00533); assay: 125I-labelled conjugate on A431 cells, against unmodified matuzumab
[2] = target: epidermal growth factor receptor (EGFR) (human) (UniProt P00533); assay: 125I-labelled conjugate on EGFR-positive A431 cells, 37 C, gamma counting (membrane bound plus internalized)

| Substance | fold of the binding percentage of the unmodified mAb [1] [fold] | % of the applied dose bound (% of applied dose per 10^6 cells) [2] |
| --- | --- | --- |
| mAb-dTAT (matuzumab conjugated to dendritic tetravalent TAT (47-60)) (antibody) | 3 | – |
| mAb-dR9 (matuzumab conjugated to dendritic tetravalent R9) (antibody) | 4.2 | 92 |
| mAb-dPenetratin (matuzumab conjugated to dendritic tetravalent penetratin) (antibody) | 3 | 68 |
| mAb-dMTS (matuzumab conjugated to dendritic tetravalent MTS) (antibody) | 3 | – |
| mAb-dSynB1 (matuzumab conjugated to dendritic tetravalent SynB1) (antibody) | – | 47 |
